Data from publication PMC8376106, “NAD^+ pool depletion as a signal for the Rex regulon involved in Streptococcus agalactiae virulence” (PLoS Pathogens, 2021).
Read-outs that look alike come from different tables or passages of the source.

Key:
[1] = target: T1, GBS Rex (Gbs1167) (Streptococcus agalactiae, UniProt Q8E565); test: isothermal titration calorimetry, one-site fit; assay type: binding
T1 construct: native Rex from pET101-Strex in E. coli TUNER (DE3), no tag used in purification; apo form eluted from 5' AMP-Sepharose; homodimer
Source text: isothermal titration calorimetry, one-site fit on GBS Rex (Gbs1167)

[2] = target: T2, Rex (Gbs1167) (Streptococcus agalactiae NEM316, UniProt Q8E565 1-212); test: ITC and EMSA; details: apo Rex in ITC; n = 2.2 +/- 0.2 (one dimer per DNA); EMSA: 20 mM Tris pH 8.0, 1 mM EDTA, 75 mM KCl, 1 mM DTT, 10 ug/ml BSA, 10% glycerol, 30 C, 20 min, 30 nM DNA (promoter fragments). ITC: 100 mM potassium …
T2 sequence: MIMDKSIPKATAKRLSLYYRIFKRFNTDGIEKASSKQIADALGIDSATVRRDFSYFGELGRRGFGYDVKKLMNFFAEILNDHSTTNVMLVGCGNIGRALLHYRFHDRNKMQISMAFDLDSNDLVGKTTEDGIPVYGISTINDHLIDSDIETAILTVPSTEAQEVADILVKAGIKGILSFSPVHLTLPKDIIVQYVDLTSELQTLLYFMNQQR

[3] = target: T2, Rex (Gbs1167); test: ITC; details: NAD+; EMSA: 20 mM Tris pH 8.0, 1 mM EDTA, 75 mM KCl, 1 mM DTT, 10 ug/ml BSA, 10% glycerol, 30 C, 20 min, 30 nM DNA (promoter fragments). ITC: 100 mM potassium …
[4] = target: the molecule itself; test: crystal structure
[5] = target: T2, Rex (Gbs1167); test: EMSA; EMSA: 20 mM Tris pH 8.0, 1 mM EDTA, 75 mM KCl, 1 mM DTT, 10 ug/ml BSA, 10% glycerol, 30 C, 20 min, 30 nM DNA (promoter fragments). ITC: 100 mM potassium phosphate pH 7.5, 25 C. Crystals: 25% PEG 1500, MIB buffer pH 5.0, 20 C.; details: protein: recombinant; tags: none (native, pET101-Strex); chain copies: 2; label: 32P; (only forward strand given)
[6] = target: T2, Rex (Gbs1167); test: EMSA; same as native ldh operator; EMSA: 20 mM Tris pH 8.0, 1 mM EDTA, 75 mM KCl, 1 mM DTT, 10 ug/ml BSA, 10% glycerol, 30 C, 20 min, 30 nM DNA (promoter fragments). ITC: 100 mM potassium phosphate pH 7.5, 25 C. Crystals: 25% PEG 1500, MIB buffer pH 5.0, 20 C.; details: protein: recombinant; tags: none (native, pET101-Strex); chain copies: 2; label: 32P; (only forward strand given)
[7] = target: T2, Rex (Gbs1167); test: X-ray crystallography (2.4 A); NAD+; Mg2+ ion located; EMSA: 20 mM Tris pH 8.0, 1 mM EDTA, 75 mM KCl, 1 mM DTT, 10 ug/ml BSA, 10% glycerol, 30 C, 20 min, 30 nM DNA (promoter fragments). ITC: 100 mM potassium phosphate pH 7.5, 25 C. Crystals: 25% PEG 1500, MIB buffer pH 5.0, 20 C.; details: protein: recombinant; tags: none (native, pET101-Strex); chain copies: 2; blunt; self-complementary, 2 strand copies

## NC(=O)C1=CN([C@@H]2O[C@H](COP(=O)(O)OP(=O)(O)OC[C@H]3O[C@@H](n4cnc5c(N)ncnc54)[C@H](O)[C@@H]3O)[C@@H](O)[C@H]2O)C=CC1 [NADH]
[1]
  Kd: 0.357 µM

## Nc1ncnc2c1ncn2[C@@H]1O[C@H](COP(=O)(O)OP(=O)(O)OP(=O)(O)O)[C@@H](O)[C@H]1O [ATP]
[1]; read-out: Ka (M^-1)^a x 10^-6 (converted)
  Kd: 250 µM

## NC(=O)c1ccc[n+]([C@@H]2O[C@H](COP(=O)(O)OP(=O)(O)OC[C@H]3O[C@@H](n4cnc5c(N)ncnc54)[C@H](O)[C@@H]3O)[C@@H](O)[C@H]2O)c1 [NAD^+]
[1]
  Kd: 76.9 µM

## NC(=O)C1=CN([C@@H]2O[C@H](COP(=O)(O)OP(=O)(O)OC[C@H]3O[C@@H](n4cnc5c(N)ncnc54)[C@H](OP(=O)(O)O)[C@@H]3O)[C@@H](O)[C@H]2O)C=CC1 [NADPH]
[1]
  Kd: 143 µM

## ROP-DNA used in ITC (sequence not specified)
[2]
  Kd: 0.03 µM
[3]
  binding signal (fold affinity vs apo Rex): 1.35

B1: Streptococcus agalactiae (GBS) strain NEM316 redox-sensing transcriptional repressor Rex (Gbs1167) (natural protein, Streptococcus agalactiae strain NEM316)
chain: MIMDKSIPKATAKRLSLYYRIFKRFNTDGIEKASSKQIADALGIDSATVRRDFSYFGELGRRGFGYDVKKLMNFFAEILNDHSTTNVMLVGCGNIGRALLHYRFHDRNKMQISMAFDLDSNDLVGKTTEDGIPVYGISTINDHLIDSDIETAILTVPSTEAQEVADILVKAGIKGILSFSPVHLTLPKDIIVQYVDLTSELQTLLYFMNQQR
notes: also called GBS Rex; native Rex; source: E. coli TUNER (DE3), pET101-Strex, purified (Q-Sepharose, Superdex 75, 5' AMP-Sepharose 4B)
[4]
  stoichiometry N: 2

B2: ldh operator 28 bp (dsDNA)
DNA 1: TTTGTTTGCAAATTTTTTCACATTTTAT
DNA 2: ATAAAATGTGAAAAAATTTGCAAACAAA
[5]
  binding result: binds

B3: ldh_m3 (C9T, A10G) (dsDNA)
DNA 1: TTTGTTTGTGAATTTTTTCACATTTTAT
DNA 2: ATAAAATGTGAAAAAATTCACAAACAAA
[6]
  binding result: binds

B4: ROP 22-mer palindrome (dsDNA)
DNA 1: AATTGTGAAATATTTCACAATT
DNA 2: AATTGTGAAATATTTCACAATT
[7]
  binding result: binds

B5: ldh_m2 (C19T, C21T) (dsDNA)
DNA 1: TTTGTTTGCAAATTTTTTTATATTTTAT
DNA 2: ATAAAATATAAAAAAATTTGCAAACAAA
[5]
  binding result: no binding
